According to article PMC4565748:
pKd: −log10 of the molar value.

Key:
[1] = target: complement C3b, site-specifically biotinylated (human) (UniProt P01024); test: SPR
[2] = target: complement C3b, site-specifically biotinylated (human) (UniProt P01024); test: SPR; remark: listed apart in the source
[3] = target: complement C3b, site-specifically biotinylated (human) (UniProt P01024); test: AlphaScreen or HTRF

Chain of complement C3b, site-specifically biotinylated (human) (P01024 23-667, chain 1 of 2): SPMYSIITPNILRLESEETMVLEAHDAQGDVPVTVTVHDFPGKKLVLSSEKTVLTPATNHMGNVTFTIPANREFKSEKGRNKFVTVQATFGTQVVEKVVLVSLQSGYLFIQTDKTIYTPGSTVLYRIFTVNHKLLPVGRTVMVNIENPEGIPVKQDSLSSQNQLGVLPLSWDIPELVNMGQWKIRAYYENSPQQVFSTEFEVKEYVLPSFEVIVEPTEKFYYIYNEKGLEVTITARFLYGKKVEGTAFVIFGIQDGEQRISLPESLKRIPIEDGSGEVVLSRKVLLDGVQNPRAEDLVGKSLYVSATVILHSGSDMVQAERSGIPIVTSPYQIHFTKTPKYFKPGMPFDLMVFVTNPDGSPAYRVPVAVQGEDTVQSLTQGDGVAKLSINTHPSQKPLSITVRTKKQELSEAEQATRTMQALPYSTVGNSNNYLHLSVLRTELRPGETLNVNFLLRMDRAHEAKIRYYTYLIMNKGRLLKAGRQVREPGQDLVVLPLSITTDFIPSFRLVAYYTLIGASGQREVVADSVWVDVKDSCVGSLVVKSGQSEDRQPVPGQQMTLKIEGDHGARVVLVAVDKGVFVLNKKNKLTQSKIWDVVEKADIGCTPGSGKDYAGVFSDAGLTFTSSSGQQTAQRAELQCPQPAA
Chain of complement C3b, site-specifically biotinylated (human) (P01024 749-1663, chain 2 of 2): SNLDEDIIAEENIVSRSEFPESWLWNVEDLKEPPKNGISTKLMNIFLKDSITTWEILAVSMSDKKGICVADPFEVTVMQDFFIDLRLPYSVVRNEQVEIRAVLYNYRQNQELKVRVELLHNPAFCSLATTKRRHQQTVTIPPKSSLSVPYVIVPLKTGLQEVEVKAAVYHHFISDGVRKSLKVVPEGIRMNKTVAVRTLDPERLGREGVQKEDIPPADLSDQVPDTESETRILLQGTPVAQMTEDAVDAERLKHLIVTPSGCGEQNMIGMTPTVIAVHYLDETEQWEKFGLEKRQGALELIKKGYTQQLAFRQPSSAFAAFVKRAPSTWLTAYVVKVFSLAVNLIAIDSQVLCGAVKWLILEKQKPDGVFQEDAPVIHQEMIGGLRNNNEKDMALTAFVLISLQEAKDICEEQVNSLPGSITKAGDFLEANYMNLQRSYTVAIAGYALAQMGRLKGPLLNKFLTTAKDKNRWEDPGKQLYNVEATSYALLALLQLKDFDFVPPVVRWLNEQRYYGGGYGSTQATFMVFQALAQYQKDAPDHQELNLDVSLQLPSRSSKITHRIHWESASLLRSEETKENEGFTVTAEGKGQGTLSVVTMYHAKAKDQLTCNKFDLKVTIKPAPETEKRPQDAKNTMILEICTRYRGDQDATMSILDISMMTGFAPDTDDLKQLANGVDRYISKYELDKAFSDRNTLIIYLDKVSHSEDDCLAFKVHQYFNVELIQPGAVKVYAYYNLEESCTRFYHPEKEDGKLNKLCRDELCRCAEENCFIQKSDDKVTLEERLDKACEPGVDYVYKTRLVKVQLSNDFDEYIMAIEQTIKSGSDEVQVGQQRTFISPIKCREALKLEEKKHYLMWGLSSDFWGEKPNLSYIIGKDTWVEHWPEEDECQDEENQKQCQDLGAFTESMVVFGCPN

Row | Substance | pKd [1] | pKd [2] | kon [2] [M⁻¹ s⁻¹] | koff [2] [s⁻¹] | pKd [3]
1 | staphylococcal complement inhibitor SCIN-B, full-length wild type (natural protein) | 6.41 | 6.69 | 520000 | – | –
2 | SCIN-B.R44A (natural protein) | 5.60 | 5.59 | 140000 | 0.35 | –
3 | SCIN-B.R44A.Y51A (natural protein) | 5.60 | 5.29 | 110000 | 0.51 | 5.46
4 | SCIN-B.Y51A (natural protein) | 6.00 | 6.09 | – | – | 6.05
